Results as given in the supplement of paper PMC7877785.
± gives the uncertainty stated by the source.

Assay: self-splicing fitness, log relative to wild type (ln ratio); higher = more splicing; Tetrahymena group I intron in knt gene, E. coli kanamycin selection, DiMSum; sequences stand for … in CUCUCU…GGAGGGAAAAGUUAUCAGGCAUGCACCUGGUAGCUAGUCUUUAAACCAAUAGAUUGCAUCGGUUUAAAAGGCAAGACCGUCAAAUUGCGGGAAAGGGGUCAACAGCCGUUCAGUACCAAGUCUCAGGGGAAACUUUGAGAUGGCCUUGCAAAGGGUAUGGUAAUAAGCUGACGGACAUGGUCCUAACCACGCAGCCAAGUCCUAAGUCAACAGAUCUUCUGUUGAUAUGGAUGCAGUUCACAGACUAAAUGUCGGUCGGGGAAGAUGUAUUCUUCUCAUAAGAUAUAGUCGGACCUCUCCUUAAUGGGAGCUAGCGGAUGAAGUGAUGCAACACUGGAGCCGCUGGGAACUAAUUUGUAUGCGAAAGUAUAUUGAUUAGUUUUGGAGUACUCGUGGUCG
Outline: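 Pooled colonies went to amplicon sequencing on an Illumina HiSeq 2500 after six replicate transformations. The plates were LB agar with 100 μg/mL carbenicillin, 50 μM IPTG and 0.2% rhamnose, with or without 25 μg/mL kanamycin, incubated overnight at 37°C or 30°C. The E. coli BL21(DE3) library had all eight P1ex-region intron nucleotides randomised, the intron placed in the knt kanamycin-resistance gene on pET-22b(+). DiMSum fitness is the error-weighted combination of replicate fold changes, kanamycin against none, normalised to wild type.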

In the case of CUCUAGCAAUAUUACGAGAC, the “self-splicing fitness (ln)” value (37 °C) is reported as -1.17 ± 0.26.

For GAGAAGCAAUAUUACGGACA, the “self-splicing fitness (ln)” value (30 °C) was -0.633 ± 0.11 and the “self-splicing fitness (ln)” value (37 °C) was -1.02 ± 0.14.

For CGACAGCAAUAUUACGGUGC, the “self-splicing fitness (ln)” value (30 °C) was -3.61 ± 0.26 and the “self-splicing fitness (ln)” value (37 °C) was -2.53 ± 0.16.

In the case of GAAAAGCAAUAUUACGGAAG, the “self-splicing fitness (ln)” value (30 °C) is reported as -3.88 ± 0.31 and the “self-splicing fitness (ln)” value (37 °C) is reported as -1.32 ± 0.16.

In the case of CGAGAGCAAUAUUACGGGCG, the “self-splicing fitness (ln)” value (30 °C) is reported as -2.3 ± 0.14 and the “self-splicing fitness (ln)” value (37 °C) is reported as -1.39 ± 0.18.

For AGCCAGCAAUAUUACGACGG, the “self-splicing fitness (ln)” value (30 °C) was -4.18 ± 0.42 and the “self-splicing fitness (ln)” value (37 °C) was -1.35 ± 0.25.

In the case of GCUCAGCAAUAUUACGGACU, the “self-splicing fitness (ln)” value (30 °C) is reported as 0.158 ± 0.12 and the “self-splicing fitness (ln)” value (37 °C) is reported as 0.485 ± 0.19.

For UAGGAGCAAUAUUACGCUAC, the “self-splicing fitness (ln)” value (37 °C) was 0.223 ± 0.43.

With GCAUAGCAAUAUUACGAAUC the “self-splicing fitness (ln)” value (30 °C) was -2.12 ± 0.33 and the “self-splicing fitness (ln)” value (37 °C) was -1.55 ± 0.32.

With UUUUAGCAAUAUUACGAUAC the “self-splicing fitness (ln)” value (30 °C) was -3.18 ± 0.45.

With AUCUAGCAAUAUUACGUUGC the “self-splicing fitness (ln)” value (30 °C) was -3.28 ± 0.28 and the “self-splicing fitness (ln)” value (37 °C) was -3.03 ± 0.37.

For GUGAAGCAAUAUUACGGCGG, the “self-splicing fitness (ln)” value (30 °C) was -1.24 ± 0.13 and the “self-splicing fitness (ln)” value (37 °C) was -1.26 ± 0.14.

For UGCGAGCAAUAUUACGCUGU, the “self-splicing fitness (ln)” value (30 °C) was -3.76 ± 0.21 and the “self-splicing fitness (ln)” value (37 °C) was -2.24 ± 0.31.

With CCCAAGCAAUAUUACGGUCG the “self-splicing fitness (ln)” value (30 °C) was -2.3 ± 0.094 and the “self-splicing fitness (ln)” value (37 °C) was -0.827 ± 0.094.

For GGUAAGCAAUAUUACGUGGU, the “self-splicing fitness (ln)” value (30 °C) was -1.33 ± 0.29 and the “self-splicing fitness (ln)” value (37 °C) was -2.48 ± 0.21.

For AACUAGCAAUAUUACGCGAC, the “self-splicing fitness (ln)” value (30 °C) was -2.49 ± 0.27.

In the case of GUCCAGCAAUAUUACGCCUC, the “self-splicing fitness (ln)” value (30 °C) is reported as -0.866 ± 0.12 and the “self-splicing fitness (ln)” value (37 °C) is reported as 0.705 ± 0.15.

In the case of ACCCAGCAAUAUUACGACGG, the “self-splicing fitness (ln)” value (30 °C) is reported as -1.39 ± 0.078 and the “self-splicing fitness (ln)” value (37 °C) is reported as -0.9 ± 0.086.

With CAAAAGCAAUAUUACGAUGA the “self-splicing fitness (ln)” value (30 °C) was -0.319 ± 0.074 and the “self-splicing fitness (ln)” value (37 °C) was -0.167 ± 0.075.

With AAUUAGCAAUAUUACGGAUC the “self-splicing fitness (ln)” value (30 °C) was -0.415 ± 0.11 and the “self-splicing fitness (ln)” value (37 °C) was 0.186 ± 0.12.

In the case of ACGUAGCAAUAUUACGGCCU, the “self-splicing fitness (ln)” value (30 °C) is reported as -0.463 ± 0.12 and the “self-splicing fitness (ln)” value (37 °C) is reported as 0.149 ± 0.13.

For AUUUAGCAAUAUUACGAAAG, the “self-splicing fitness (ln)” value (30 °C) was -2.86 ± 0.25 and the “self-splicing fitness (ln)” value (37 °C) was -0.748 ± 0.17.

With UCUAAGCAAUAUUACGAUAG the “self-splicing fitness (ln)” value (30 °C) was -1.15 ± 0.07 and the “self-splicing fitness (ln)” value (37 °C) was -0.499 ± 0.1.

With CUGCAGCAAUAUUACGUUAC the “self-splicing fitness (ln)” value (30 °C) was -4.46 ± 0.28 and the “self-splicing fitness (ln)” value (37 °C) was -3.08 ± 0.24.

For UACCAGCAAUAUUACGCUAU, the “self-splicing fitness (ln)” value (30 °C) was -2.45 ± 0.11 and the “self-splicing fitness (ln)” value (37 °C) was -0.409 ± 0.089.

With UUCCAGCAAUAUUACGCAGG the “self-splicing fitness (ln)” value (30 °C) was -3.53 ± 0.23 and the “self-splicing fitness (ln)” value (37 °C) was -2.57 ± 0.36.

In the case of CACAAGCAAUAUUACGUUAG, the “self-splicing fitness (ln)” value (30 °C) is reported as -1.37 ± 0.052 and the “self-splicing fitness (ln)” value (37 °C) is reported as -0.63 ± 0.062.

With GUCUAGCAAUAUUACGUAAA the “self-splicing fitness (ln)” value (30 °C) was -0.871 ± 0.085 and the “self-splicing fitness (ln)” value (37 °C) was 0.379 ± 0.092.

In the case of UUCUAGCAAUAUUACGUUUU, the “self-splicing fitness (ln)” value (30 °C) is reported as -3.83 ± 0.23 and the “self-splicing fitness (ln)” value (37 °C) is reported as -2.92 ± 0.18.

In the case of CGCGAGCAAUAUUACGACGA, the “self-splicing fitness (ln)” value (37 °C) is reported as -0.89 ± 0.35.

For GGUUAGCAAUAUUACGGCGA, the “self-splicing fitness (ln)” value (30 °C) was -0.237 ± 0.09 and the “self-splicing fitness (ln)” value (37 °C) was 0.106 ± 0.086.

With CAUUAGCAAUAUUACGCAGG the “self-splicing fitness (ln)” value (30 °C) was -2.18 ± 0.12 and the “self-splicing fitness (ln)” value (37 °C) was -1.53 ± 0.13.

With UUGGAGCAAUAUUACGGGAC the “self-splicing fitness (ln)” value (30 °C) was -4 ± 0.48 and the “self-splicing fitness (ln)” value (37 °C) was -0.322 ± 0.34.

With AGUUAGCAAUAUUACGUAAU the “self-splicing fitness (ln)” value (30 °C) was -2.56 ± 0.14 and the “self-splicing fitness (ln)” value (37 °C) was -1.47 ± 0.14.

With UUACAGCAAUAUUACGCGCG the “self-splicing fitness (ln)” value (30 °C) was -0.121 ± 0.099 and the “self-splicing fitness (ln)” value (37 °C) was 0.0717 ± 0.1.

With GAGCAGCAAUAUUACGGCAG the “self-splicing fitness (ln)” value (30 °C) was -2.34 ± 0.16 and the “self-splicing fitness (ln)” value (37 °C) was -1.69 ± 0.19.

In the case of UAGCAGCAAUAUUACGCUAA, the “self-splicing fitness (ln)” value (30 °C) is reported as -2.07 ± 0.26 and the “self-splicing fitness (ln)” value (37 °C) is reported as -1.73 ± 0.27.

With CUCUAGCAAUAUUACGGCGU the “self-splicing fitness (ln)” value (30 °C) was -3.56 ± 0.27 and the “self-splicing fitness (ln)” value (37 °C) was -2.83 ± 0.24.

With UGUCAGCAAUAUUACGGUGC the “self-splicing fitness (ln)” value (30 °C) was -3.51 ± 0.43 and the “self-splicing fitness (ln)” value (37 °C) was -2.74 ± 0.38.
